Test results as given in publication PMC6576158.

Target: mouse Nicastrin I241C mutant (mouse) (UniProt P57716)
Experiment: cross-linking

Sequence of UniProt P57716 (P57716 28-708 I241C): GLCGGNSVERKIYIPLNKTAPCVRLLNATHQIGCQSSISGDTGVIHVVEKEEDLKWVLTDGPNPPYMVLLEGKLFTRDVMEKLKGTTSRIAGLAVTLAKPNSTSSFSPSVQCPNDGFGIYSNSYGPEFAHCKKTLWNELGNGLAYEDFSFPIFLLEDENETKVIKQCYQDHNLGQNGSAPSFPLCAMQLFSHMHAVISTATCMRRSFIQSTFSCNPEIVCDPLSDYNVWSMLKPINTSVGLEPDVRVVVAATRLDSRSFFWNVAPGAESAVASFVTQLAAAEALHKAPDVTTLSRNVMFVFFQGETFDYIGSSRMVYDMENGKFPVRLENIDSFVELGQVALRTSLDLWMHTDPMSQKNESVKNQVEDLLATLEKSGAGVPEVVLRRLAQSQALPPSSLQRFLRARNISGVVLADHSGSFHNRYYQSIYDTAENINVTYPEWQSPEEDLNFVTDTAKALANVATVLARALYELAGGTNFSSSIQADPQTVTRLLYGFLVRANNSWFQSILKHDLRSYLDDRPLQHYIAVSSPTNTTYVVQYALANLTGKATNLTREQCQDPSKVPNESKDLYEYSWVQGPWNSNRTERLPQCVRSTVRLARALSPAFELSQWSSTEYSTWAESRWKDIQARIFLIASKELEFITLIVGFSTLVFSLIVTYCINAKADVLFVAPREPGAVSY

Substance: APPC99‐3xFLAG‐K28C (domain or fragment)
- percent of the substrate cross-linked to NCT (disulfide bond): 15.4%
